Substitutions are numbered along the chain they refer to.

In experiment [1] the target is T1, wildtype SARS-CoV-2 RBD Protein (Severe acute respiratory syndrome …, UniProt P0DTC2). Put plainly: SPR. The conditions noted are these: both partners purified.
Experiment [2] concerns the target T1, wildtype SARS-CoV-2 RBD Protein. Put plainly: BLI. The conditions noted are these: both partners purified.

B1: 18-4A (antibody, V domains shown)
VH: QVQLQQSGPGLVKPSQTLSLTCAISGDSVSNNSAAWNWIRQSPSRGLEWLGRTYYRSKWYNDYAVSVSSRITINPDTSKNQFSLQLNSVTPEDTAVYYCAREGALLWFGEGAFDYWGQGTLVTVSS
VL: EIVLTQSPGTLSLSPGERATLSCRASHIVSSSYLAWYQQKPGQAPRFLIYGASSRATGIPDRFSGSGSGTDFTLTISRLEPEDFAVYYCQQYAGSPFTFGPGTKVDIK
Regarding B1, in experiment [1], the dissociation constant Kd (commonly the concentration at which binding is half-saturated) worked out at 0.234 nM.

B2: 11-2G (antibody, V domains shown)
VH: QVQLQQAGPGLVKPSQTLSLTCAISGDSVSNNSAIWNWIRQSPSRGLEWLGRTYYRSKWYNDYAVSVSSRITINPDTSKNQFSLQLNSVTPEDTAVYYCARVDILTGYSFDYWGQGTLVTVSS
VL: EIVLTQSPGTLSLSPGERATLSCRASQSVSSSFLAWYQQKPGQAPRFLIYGESYRATGIPDRFSGSGSGTDFTLTISRLEPEDFAVYYCQQYGSSLTFGGGTKVEIK
As to B2, in experiment [1], the dissociation constant Kd came out at 0.451 nM.

B3: 4-2D (antibody, V domains shown)
VH: QVQLQQSGPGLVKPSQTLSLTCAISGDSVSNNSAAWNWIRQSPSRGLEWLGRTYYRSKWYNDYAVSVSSRITINPDTSKNQFSLQLNSVTPEDTAVYYCARGLWIPYYYGMDVWGQGTTVTVS
VL: B2 VL with S31N, S32I, Y54S, G100P, E105D
Turning to B3, the binding result in experiment [2] is “binds”.

B4: 4-1B (antibody, V domains shown)
VH: QVQLQQSGPGLVKPSQTLSLTCAISGDSVSNNSAAWNWIRQSPSRGLEWLGRTYYRSKWYNDYAVSVSSRITINPDTSKNQFSLQLNSVTPEDTAVYYCARGVYGSGPHAFDIWGQGTMVTVSS
VL: B2 VL with G51V, E52T, Y54N
For the molecule B4, the binding result in experiment [2] was “binds”.

B5: 15-11F (antibody, V domains shown)
VH: QVQLQQSGPGLVKPSQTLSLTCAISGDSVSNNSAAWNWIRQSPSRGLEWLGRTYYRSKWYNDYAVSVSSRITINPDTSKNQFSLQLNSVTPEDTAVYYCARFSRLLGYGMDVWGQGTTVTVS
VL: B2 VL with S30I, F33Y, A35S, E52A, S53A, Y54S
For the molecule B5, in experiment [2], the binding result is “binds”.

The values are drawn from paper PMC9545174, “Discovery and characterization of SARS-CoV-2 reactive and neutralizing antibodies from humanized CAMouse^HG mice through rapid hybridoma screening and high-throughput single-cell V(D)J sequencing” (Frontiers in Immunology, 2022).
